Values joined by “and” are separate entries in the source; they are usually repeats but may differ in a detail not shown here. Equal entries are not always repeated.

The subject of this data set is Bacillus subtilis DB104 (SP-AmyQ fusion secretion). The data set can be described thus: AmyQ secretion efficiency, weighted average sort bin (1 = best secretion, 10 = worst) (bin number (weighted average, 1-10)); higher = lower secretion efficiency. A digest of the protocol: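 Occupied alginate beads were sorted by large-particle flow cytometry into 10 equally populated bins according to green/red fluorescence ratio. Each bead (~65 nL) held fluorescein-starch and about 0.3 cells of a B. subtilis DB104 library expressing mature AmyQ fused to designed signal peptides from the amyE locus, and beads were grown about 13 h at room temperature and stained with nile red before sorting. Bin amplicons were Illumina-sequenced, and the secretion score is the read-frequency-weighted average bin number, normalised to beads per bin, excluding low-abundance sequences.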

Sequence MMKRSSLIMMTGLLFGLTSPAFAAEK returned an AmyQ secretion efficiency of 3.11.
As to MKKRLIAPMLLSAASLAFFAMSGSPQAAAY, the AmyQ secretion efficiency turned out to be 5.7.
The figure for MFKKHSRSLLIIFLLASAVLAKPIEAHTV is 4.1; for MKKRLIAPMLLSAASLAFFAMSGSAQAAAE it is 2.56.
As to MKSKWMSRKRRVAVGFSFTQVMVHAGET, the AmyQ secretion efficiency amounted to 6.31.
Regarding MKRFSTAYLLLGILCSAAVFLIGAPSRTLGAEV, the AmyQ secretion efficiency came out at 3.24.
The figure for MKIRKILLSSALSFGMLISAVPALAAEE is 2.95; for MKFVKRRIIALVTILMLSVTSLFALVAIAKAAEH it is 4.46; for MKKGIIRFLLVSFVLFFALSSTGITGVQAAPA it is 1.83.
To MHLIRAAGAVCLAVVLIAGCRFNEDQHQFEGENT belongs 5.53; to MFKFKKNFLVGLSAALMSISLFSATASAADD, 3.08; to MKKQRKIITATTAVVLGSTLFAGAASAQSI, 1.81.
To MKNMSCKLVVSVTLFFSFLTIGPLAHQQNS belongs 5.78; to MKRIRIPMTLSTLALGAALTIAPLSFASAEEN, 3.35.
Take MIKAAAVLLSLGLVFGFSYGAGHVAEAKTK: the AmyQ secretion efficiency turned out to be 2.3.
The figure for MKKRKRRNFKRFIAAFLVLALMIRRVPARVLAKST is 6.23.
To MFNRLFRVCRRAALIMAFTLPNSVYAQKP belongs 4.23.
Regarding MTMLRKIIGWILLLCIIPLFAFTVIASYKEV, the AmyQ secretion efficiency amounted to 6.87.
Sequence MKKRLIAPMLLSAASLAFFAMVAVIAQAAAY had an AmyQ secretion efficiency of 5.95.
The figure for MKKTIMSFVAVAALSTTAFGAHASGKEI is 2.91.
In the case of MRMLWRSLALCGLALTLAPCFVVTPASAQAAEP, the AmyQ secretion efficiency was determined as 2.23.
Take MLKKKWMVGLLAGCLAAGFFGYNAFATEN: the AmyQ secretion efficiency is 6.85.
The figure for MKKQTTIINNSTIITATTAVVLGSTLFAGAASAQSI is 3.18; for MKLKSKLFVICLAAAAIFTAAGVSANNEALDF it is 5.76.
The figure for MLTKRLLTIYIMLLGLIKKKRKKAQAEEK is 7.57.
The figure for MLCVMMLLFSAIASFPVSAQAASR is 6.18.
As for MKKWMALTSGLFLAAAVLLCLMVPQQIQGASS, the AmyQ secretion efficiency came out at 4.17.
MTKKAWFLPLVCVLLISGWLAPAASRSAQTT registered an AmyQ secretion efficiency of 5.9.
To MKKKQVMLALTAAAGLGLTALHSAPAAKPAPL belongs 4.99.
The figure for MKKSQYFIVFICFFVLFSVHPIAAARADS is 3.7; for MKKELLASLVLCLSLSPLVSTNEVFAAEE it is 2.07; for MKKRLIAPMLLSAASLAFFATFMSGSAQAAAY it is 3.39.
To MAIIIAIIAAVIVIAALITFNVRNFSPG belongs 6.5.
In turn, MKKRLIAPMLLSAASLAFFAKRKSAQAAAY registered an AmyQ secretion efficiency of 7.88.
The figure for MRIFKKTYSQQGQTFLIATVNVNTAHAAID is 8.8; for MIAYFGKCRKTRTIMFLGVLFGMQQANHG it is 3.14.
As for MTKLKMLSMLTVMIASLFIFSSQCLAVQY, the AmyQ secretion efficiency worked out at 2.27.
To MGMKKKLSLGVASAALGLALVGGGSWAAFN belongs 6.13; to “MKRLTLVCSIVFILEDLFYDLDIGTIPIQDLPVYEASAKTA”, 7.06.
With MNKKYFVLIVCIIFTSALFPTFSSVTAAQR, the AmyQ secretion efficiency was 1.45.
To MKLAKRVSALTPSTTLAITAKAAED belongs 5.72; to MKLSVKIAGVLTVAAAAMTAKMYPTAKGN, 5.7.
To MKLRKVLTGSVLSLGLLVSASPIFATSP belongs 1.63; to MKVCQKSIVRFRKRRIIGTFVISVPFMANAQSD, 7.62; to MKLSVKIAGVLTVAAAAMTAKMYATTKGN, 5.53.
To MMKKLFHSTLIVLLFFSFFGVQPLHAKKQ belongs 2.57; to MRGKSAVLLSLIMLIAGFLISFVFQM, 6.98.
In turn, MRSYIKVLTMCFLGLILFVFSSLPTALADNS came in with an AmyQ secretion efficiency of 2.22.
For MSIWIVLFLVLIAAAISIFVYVSTGSEK, the AmyQ secretion efficiency was 6.85.
The figure for MRPVFPLILSAVLFLSCFRGARQTKASASKR is 7.54; for MPYLKRVLLLLVTGLFMSLFAVTATASDQTG it is 1.01; for MKRFLIGAGVAAVILFSITFSGWFIADHQTHSQEM it is 5.28.
The figure for MRPVFPLILSAVLFLSCFFGARQTEASNSKR is 2.41.
The figure for MRIFKKAVFVIMISFLIARRRKKRAHAAID is 8.88; for MKSKWMSGLLLVAVGFSFTQVMVHAGTT it is 5.78; for MIVIILLFISIIVFLSVIQPQPS it is 8.27 and 5.9 and 6.5.
Regarding MGLGKKLSVAVAASFMSLSISLPGVAAGFVFVQAAEG, the AmyQ secretion efficiency stood at 4.93.
To MKKRKRRNFKRFIAAFLVLALMISLVPADALAKST belongs 1.92; to MTGWLIIAVSLAIAIVLFMYTKGEAKAAGM, 7.08.
The figure for MNKLKRLSMLKKKKASVFIFSSHALAAQY is 6.52; for MKKQIITATTAVVLGSTLFAGADSAQSI it is 3.56; for MAIIIAIIAAVIVIAALITFNVRNASPE it is 6.75.
The figure for MFKKHTISLLIIFLLASAVLAKPGEAHTV is 2.82; for MKKVLMAFIICLSLILSVLAAPPSGAKAAED it is 3.24.
Turning to MKKKLAAGLTASAIVGTTLVVFTAEAATI, the AmyQ secretion efficiency is 5.8.
To MRKSLITLGLASVIGTSSFLIPFTSKTHSAETL belongs 6.74; to MKVCQKSIVRFKRRKRRGTFVISVPFMANAQSD, 7.96.
The figure for MLKRTSFVSSLFISSAVLLSILEDDDDDAHAQSA is 5.08; for MPYLKRVLLLLVTGLFMSLFAVTATHSAQTG it is 6.96.
The figure for MKTKTLFIFSAILTLSIFAPNEGFAQTA is 3.32; for MKKWIYVVLVLSIAGIGGKRRVHAASS it is 7.83.
In turn, MKRMIVRMTLPLLIVCLAFSDFSASARAASE came in with an AmyQ secretion efficiency of 2.61.
In the case of MKKKRLLAGALTATVLFGTCAVDVPGIISPKTAEAASQ, the AmyQ secretion efficiency came out at 1.66.
The figure for MSTTIIITATTAVVLGSTLFAGAASAQSI is 2.61.
Sequence MKRTWNVCLTALLSVLLVAGSVTLVAAPFHAEAKKP had an AmyQ secretion efficiency of 2.5.
To MAIIIAIIAAVIVIAALITFNVRNVSPG belongs 8.03; to MKRLFMKASLVLFAVVFVFAVKGAPAKAAKR, 3.29; to MNKFLKSNRFLLAAALGISLLASSNFIKASND, 4.66.
To MKQIMIFLMIFMLLAMTGQTALAKDV belongs 4.05.
To MQKKWRRRLIQFAVMLSVLSTFTYSASAVGV belongs 3.56.
Sequence MLKKKWMVGLLAGCLAAGVALALSGFSYNAFATEN displayed an AmyQ secretion efficiency of 5.02.
To MKRLLSTLLIGIMLLTFAPSAFAAED belongs 2.37.
To MPYRKRRRVLLLLVTGLFMSLFAVTATASAQTG belongs 1.13; to MLKFLKSNFRFLLAAALGISLLASSNFIKASND, 3.52; to MGLGKKLSVAVAASFMSLSISLPGVQFAEG, 4.64.
To MKRTWNVCLTALLSVLLVAGSVDDHAEAKKP belongs 1.97; to MTIIIAIIAAVIVIAALITFNVRNASPG, 7.45.
Consider MKRSISIFITCLLITLLTMGGMIASPASEAGT, for which the AmyQ secretion efficiency was 4.1.
The sequence MKKAFLVFLSVVVKQQESVAQAKQL gave an AmyQ secretion efficiency of 7.51.
The figure for MKKVVLVLSIAGIGGFSVHAASS is 6.91; for MKSKGSIMACLILFSFTITTFINTETMSAFSN it is 5.38.
The figure for MKLKSKLFVICLAAATAAGVSANAEALDF is 5.89; for MLTKRLLTIYIMLLMLIAWFPGAAQAEEK it is 1.61.
The figure for MGLGKKLKKKKAASFMSLSISLPGVQAAEG is 7.92.
Take MAIIIAIIAAVIVIAALITFNVGGSPVVSTSTARNASPG: the AmyQ secretion efficiency was 3.35.
To MKRKSCKLVVSVTLFFSFLTIGPLAHAQNS belongs 1.46.
Sequence MAIIIAIIAAVIVIAALITFNVLNASPG yielded an AmyQ secretion efficiency of 6.68.
To MRKKKRKLLLATSALTFSLSLVLPLDGHAKAQEV belongs 2.13.
To MKKLVLCVSILAVILSGVWLTQLS belongs 5.87; to MKKIITATTAVVLGSTLFAGAASAQSI, 2.35.
The figure for MRKRRKRGIQAFAGGIILATAVLAAVFYLTDEDQAAAV is 6.73.
Regarding MKKVLMAFIICLSLILSVLAAPPSGEKAESV, the AmyQ secretion efficiency was determined as 6.63.
To MKRFLIGAGVAAVILSGWFIADHQFHSQEM belongs 5.93; to MKRIRIPMTLALGAALTIAPLSFASREEN, 6.16; to MKRCKRRRLIVCSLAAILLLIPSVSFAADS, 3.97.
MKVCQKSIVRFLVSLIIGTFVITSVPFMANAQSD yielded an AmyQ secretion efficiency of 3.
The figure for MMIKQCVICLSLLVFGTTAAHAARR is 5.39.

(Values after the supplement of paper PMC9942255.)
